Measurements reported in the supplement of paper PMC10567573.

B1: MTMR15 (parent)
chain: FSPDFTLRNTLKSTSEDSLVKQEC

Variants of: B1
Experiment: protein stability index of a GFP-peptide fusion (GPS, HEK-293T) (PSI 1-6); higher = more stable
Settings: c terminus: a fixed tail appended
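Note: lentivirally expressed fusions sorted by FACS into six bins by GFP to DsRed ratio, PSI derived from sequencing read proportions per bin multiplied by bin number.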

Protein stability index: each site, then its substitutions
S15: G 2.33, M 1.99, C 2.71, P 1.83, T 1.85, A 1.64, I 1.73, D 1.95, K 1.73, Q 1.84, R 2.34, E 1.82, W 2.02, H 1.93, N 1.43, Y 1.83, F 2.63, L 1.96, V 1.48
L19: Q 3.03, K 1.85, T 2.56, D 2.37, F 2.14, P 1.96, V 1.66, H 2.32, W 1.69, E 2.1, R 2.15, I 2.5, A 1.7, G 2, N 2.2, C 2.15, M 2.46, Y 2.24, S 1.97
V20: D 2.08, C 1.74, G 1.78, H 2.19, A 2.09, E 2.12, F 3.85
E16: R 1.76, M 2.29, D 2.54, T 1.57, F 2.48, V 2.68, I 1.91, H 2.25, A 1.67, Q 2.41, N 1.93, Y 1.83, S 2.1, C 1.98, G 1.93, W 2.38, L 1.75, P 2.38, K 1.75
T14: W 1.58, D 2.1, M 2.05, A 1.54, F 2.82, E 2.64, H 1.96, G 2.49, P 1.69, K 1.73, C 2.78, Y 1.72, L 2, S 2.1, N 2.11, R 1.77, V 2.43, Q 2.31, I 1.62
S13: Y 2.35, A 1.9, C 2.08, Q 2.31, V 1.97, H 2.42, R 3.03, W 2.66, D 2.02, T 1.53, F 2.13, I 2.56, K 1.58, E 2.11, P 2.12, M 2.02, N 2.69, L 1.83, G 1.81
K12: A 1.79, N 1.41, L 2.28, W 3.33, S 2.04, I 2.6, H 1.71, M 1.81, G 2.24, P 1.77, Q 1.92, E 2.67, T 1.67, D 2.27, F 2.03, Y 2.38, C 2.34, V 2.14, R 1.71
L11: W 1.81, S 2.04, V 2.26, P 2.11, T 1.81, Q 2.06, Y 1.75, R 1.81
S18: I 3.61, D 1.76, E 2.02, P 2.05, H 1.92, R 2.3, A 1.75, N 1.57, L 2.48, C 1.79, F 1.87, Y 2.41, G 1.76, T 2.21, W 1.75, K 2.17, V 1.84, Q 2.01, M 2.37
D17: V 2.06, Y 2.11, K 1.69, P 2.08, S 1.45, I 2.58, G 2.03, M 2.07, Q 2.37, C 1.47, T 2.22, A 1.89, R 1.61, N 1.8, L 2.36, W 2.6, E 2.12, F 2.8, H 2.34
